In paper PMC4083873, “Expression and characterization of a β-fructofuranosidase from the parasitic protist Trichomonas vaginalis” (BMC Biochemistry, 2014):

How the values were obtained:
[1] = substrate: OC[C@H]1O[C@@](CO)(O[C@H]2O[C@H](CO)[C@@H](O)[C@H](O)[C@H]2O)[C@@H](O)[C@@H]1O; assay: coupled hexokinase / glucose-6-phosphate dehydrogenase assay of released glucose; Michaelis-Menten fit; format: biochemical, Trichomonas vaginalis; details: 20 mM sodium acetate, pH 5.0, 30 °C, ~27 nM enzyme
Description: coupled hexokinase / glucose-6-phosphate dehydrogenase assay of released glucose; Michaelis-Menten fit on T. vaginalis β-fructofuranosidase

[2] = substrate: OC[C@H]1O[C@H](OC[C@H]2O[C@H](O[C@]3(CO)O[C@H](CO)[C@@H](O)[C@@H]3O)[C@H](O)[C@@H](O)[C@@H]2O)[C@H](O)[C@@H](O)[C@H]1O; assay: coupled hexokinase / glucose-6-phosphate dehydrogenase / phosphoglucose isomerase assay of released fructose; Michaelis-Menten fit; format: biochemical, Trichomonas vaginalis; details: 20 mM sodium acetate, pH 5.0, 30 °C, ~27 nM enzyme
Description: coupled hexokinase / glucose-6-phosphate dehydrogenase / phosphoglucose isomerase assay of released fructose; Michaelis-Menten fit on T. vaginalis β-fructofuranosidase

B1: T. vaginalis β-fructofuranosidase (Trichomonas vaginalis G3) (protein)
chain: MNFSSRLKFHFEPLKGWMNDPNGLIQFKGEYHAFFQHYPFDTKWGPMHWGHATSKDLIHWEHKPIALYPDQEYENNGGCFSGSAIEFNDKLHIFYTGVGKSNGQSQCHAVMQDENRFIKDPKNPIIKSPPIEYGINDFRDPKVVKIENTFYMVVGTGKDGIGRVLLYKSSNLENWTFLNLLVEGKEYGQCCECPDLIQIDNQFFLMFSQMTGQGIGTLFFHLKYENGTFTVDKKLNQPIIGPDFYAPQTFHDDKGRRIIIGWLYNWKRVPPKEVDYAGAFTIPCELKYKEGKIVVNPIDEISHELKSESKFVEIQENKLIINGKPSVIHEGKIENIKILEDVKTIEVWINNGEFYYSTWLF
notes: E. coli BL21(DE3); IMAC; calculated 44 kDa
- Km [1]: 20.6 ± 2.2 mM
- Vmax [1]: 1580 µmol/min/mg
- kcat [1]: 1160 ± 36 s⁻¹
- Km [2]: 5.5 ± 0.9 mM
- Vmax [2]: 368 µmol/min/mg
- kcat [2]: 270 ± 12 s⁻¹
